Experiments:
[1] = target: T1, truncated TAF-1 (p5a product from Met-22) (Nicotiana tabacum, UniProt Q99142 SEQ:1-244); experiment: competition; 3 ng gave about 50% competition against WT probe; 200 ng needed for WT; direct EMSA also stronger than WT (FIG. 4A); conditions: tags: expressed from pSK(-) lacZ promoter in E. coli, ammonium sulfate fraction; chain copies: 2 (inferred)
T1 sequence: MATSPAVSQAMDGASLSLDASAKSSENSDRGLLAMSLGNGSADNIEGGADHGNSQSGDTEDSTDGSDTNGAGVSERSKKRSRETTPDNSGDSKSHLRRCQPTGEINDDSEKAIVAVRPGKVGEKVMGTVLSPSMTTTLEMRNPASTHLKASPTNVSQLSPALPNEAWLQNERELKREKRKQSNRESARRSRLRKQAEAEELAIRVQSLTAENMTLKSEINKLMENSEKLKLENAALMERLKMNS
From the text: (§1) FIG. 4A. TAF-1 preferentially binds to a perfect palindromic sequence. Tetramers of WT motif I, the mutant M1, and the perfect palindrome (PA), […], (SEQ. ID NO: 9) were used as probes in gel mobility shift-assays with E. coli extracts containing the truncated TAF-1. F, free probe; NC, non-specific complex. The specific complexes, indicated with arrowheads, have a slower mobility as compared to the non-specific complex. FIG. 4B. Relative binding affinities of TAF-1 to motif I (WT) and related sequences. WT motif I tetramer was used as a probe in gel mobility shift assays with E. coli extracts containing the truncated TAF-1. Different concentrations of tetramers of mutants M1 to M5, as well as the tetramer of the perfect palindromic sequence (PA) were tested for their ability to compete with the WT sequence for TAF-1. For WT, PA, M1 and M5, the concentrations that gave approximately 50% competition were used in the experiments shown here. Higher concentrations were used for mutants M2, M3 and M4. Comp., Competitor. FIG. 4C. Nucleotide sequences of WT (SEQ. ID NO: 11), mutants M1 to M5 (SEQ. ID NOS: 10, 13, 14, 15 and 12), and the perfect palindrome, PA (SEQ. ID NO: 9). In this figure, the WT motif I of the tetramer is shown with the TACGTG hexanucleotide as the core sequence. The 5' nucleotide G of the motif is derived from the 3' nucleotide of the preceding motif in the tetramer. […]

[2] = target: T1, truncated TAF-1 (p5a product from …); experiment: competition; self competition; direct EMSA complexes in FIG. 2D; poly(dI-dC); conditions: tags: expressed from pSK(-) lacZ promoter in E. coli, ammonium sulfate fraction; chain copies: 2 (inferred); label: fill-in labelled
From the text: as §1

[3] = target: T1, truncated TAF-1 (p5a product from …); experiment: competition; 60 ng gave about 50% competition; increased affinity also in direct EMSA; conditions: tags: expressed from pSK(-) lacZ promoter in E. coli, ammonium sulfate fraction; chain copies: 2 (inferred)
From the text: as §1

B1: PA perfect palindrome (G-box) tetramer (dsDNA)
DNA 1: GCCACGTGGCGCCACGTGGCGCCACGTGGCGCCACGTGGC
DNA 2: B1 DNA 1
Binder B1 has a binding signal [1] of about 66 fold vs WT.

B2: motif I WT tetramer (dsDNA)
DNA 1: GTACGTGGCGGTACGTGGCGGTACGTGGCGGTACGTGGCG
DNA 2: CGCCACGTACCGCCACGTACCGCCACGTACCGCCACGTAC
B2 showed an IC50 [2] of about 200 ng.

B3: M1 tetramer (dsDNA)
DNA 1: CAACGTGGCGCAACGTGGCGCAACGTGGCGCAACGTGGCG
DNA 2: CGCCACGTTGCGCCACGTTGCGCCACGTTGCGCCACGTTG
With B3 the binding signal [3] was 3.3 fold vs WT.

Source: US5362864, “Trans-activating factor-1” (The Trustees of the Rockefeller University)
